These are literature values, as cited in paper PMC7023894.

This series concerns the target Ezrin FERM (Homo sapiens) (UniProt P15311).

pKd: −log10 of the molar value.

UniProt P15311, sequence (P15311 1-299): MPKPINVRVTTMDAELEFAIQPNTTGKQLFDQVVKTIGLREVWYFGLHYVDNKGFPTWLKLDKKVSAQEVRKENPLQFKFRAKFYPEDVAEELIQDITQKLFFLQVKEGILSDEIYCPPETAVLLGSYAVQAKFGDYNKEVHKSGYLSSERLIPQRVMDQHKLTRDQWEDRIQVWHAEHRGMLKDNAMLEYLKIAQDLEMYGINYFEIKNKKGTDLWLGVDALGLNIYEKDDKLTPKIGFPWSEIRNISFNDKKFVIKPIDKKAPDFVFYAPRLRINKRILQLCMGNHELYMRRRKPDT

For orientation: pKd means the Kd on a negative log10 scale, so that one unit is a factor of ten. As for “Transgelin-2 CLR region (from UniProt P37802)”, the pKd was 7.13.
